Measured values as given in PMC5594927.

Key:
[1] = molecular target: T1, AtGPA1, Arabidopsis Gα subunit, His-tagged (Arabidopsis thaliana) (UniProt P18064)
T1 sequence: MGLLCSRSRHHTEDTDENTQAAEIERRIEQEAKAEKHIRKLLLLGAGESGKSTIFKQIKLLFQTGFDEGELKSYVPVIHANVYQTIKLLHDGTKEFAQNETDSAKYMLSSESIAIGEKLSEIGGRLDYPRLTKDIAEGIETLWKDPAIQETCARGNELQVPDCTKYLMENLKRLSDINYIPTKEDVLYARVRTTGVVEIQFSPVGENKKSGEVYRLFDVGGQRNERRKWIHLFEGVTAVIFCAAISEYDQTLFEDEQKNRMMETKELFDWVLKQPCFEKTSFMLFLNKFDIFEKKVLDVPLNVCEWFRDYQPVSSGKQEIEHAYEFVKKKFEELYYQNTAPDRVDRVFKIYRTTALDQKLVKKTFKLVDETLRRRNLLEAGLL

[2] = molecular target: T1, AtGPA1, Arabidopsis Gα subunit, His-tagged (Arabidopsis thaliana); remark: listed apart in the source

B1: C-terminal domain of AtRGS1 (residues 284–459), His-tagged (domain or fragment)
chain: KEEFRPVDPNEPLDKLLLNKRFRHSFMEFADSCYAGETLHFFEEVYEHGKIPEDDSIRRIYMARHIMEKFIVAGAEMELNLSHKTRQEILTTQDLTHTDLFKNALNEVMQLIKMNLVRDYWSSIYFIKFKEEESCHEAMHKEGYSFSSPRLSSVQGSDDPFYQEHMSKSSRCSSPG
GAP activity as ΔK per molecule, single turnover GTPase assay (min^−1 pmol^−1) [1]: 0.0378 | rate constant of single turnover GTP hydrolysis by AtGPA1 with 30 nM RGS1box [2]: 0.18 min⁻¹
